We go through eleven sequences from the supplement of paper PMC9170038.

The data set deals with MS2 coat protein. Kind of data set: apparent KD of MS2 coat protein; designed switch direction (-1 OFF switch, 1 ON switch): 1; higher = weaker reporter binding. The method, boiled down: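 Normalised cluster fluorescence was curve-fitted, and each design's median over clusters is its apparent KD. Before this, SNAP-549-labelled MS2 coat protein was titrated from 0.7 or 1.5 nM, doubling to 3 µM, over RNA switches transcribed on Illumina chips by stalled E. coli RNA polymerase. Titrations had no input, 200 uM small-molecule ligand, or an oligonucleotide input, and steps lasted 0.8–1.5 h (lowest) to 10–20 min (highest).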

[1] abbreviates: input ligand: microRNA oligo, concentration not stated.
[2] abbreviates: Eterna round: R95, input ligand: FMN 200 uM.
The mark [3] stands for this setting: Eterna round: R95, input ligand: microRNA oligo, concentration not stated.
Where [4] appears, read: Eterna round: R95, input ligand: none.

Regarding “GUUACAUGAGGAUCACCCAUGUAUGUGUGGGAGUAAGUGUCUUAGGAUAUCUGUUAUUUAAUUCAAGAGAAGGAAGAUUGUUGU [JMF's solution 46] (Eterna round: R96, puzzle: Same State NG 3)”, the “apparent KD of MS2 coat protein” value runs as follows: (input ligand: FMN 200 uM) 0.0946 µM; under setting [1], 0.0791 µM; (input ligand: none) 0.0937 µM.
With “GUAGAAGAACUAGAGGAUAUCCGAGUGGUAACAUGAGGAUCACCCAUGUGAUGAAAGGAACAUGAGGAGAAGGCUAGAAUGAAUG [Mat - Same State 2 - Mod of JL - D83] (puzzle: Same State 2)”, the “apparent KD of MS2 coat protein” value came out at 0.0247 µM under setting [2], 0.0457 µM under setting [3] and 0.0792 µM under setting [4].
In the same order, the values of “GUAGAAUAACUAGAGGAUAUCCGAGUGGUAACAUGAGGAUCACCCAUGUGAUGAAAGGAACAUGAGGAGAAGGCUAGAAUGAAUG [Mat - Same State 2 - Mod of JL - D84] (puzzle: Same State 2)” are 0.0234 µM, 0.0384 µM and 0.0883 µM.
As for “GAGCCAGUCCGAGGAUAUUCAUAACAUGAGGAUCACCCAUGUAGGCUCAGAAAAGAAGAGCCUUGGGAGAAGGCGGACUGGCUC [Xeonanisa<<5] (Eterna round: R96, puzzle: Same State NG 2)”, the “apparent KD of MS2 coat protein” value was 0.00988 µM (input ligand: FMN 200 uM), 0.0302 µM under setting [1] and 0.0438 µM (input ligand: none).
As for “UAACAACAUAUAGAACAAGCGUGCUCGUCACAUGAGGAUCACCCAUGUCUAAGCGCUGUACCUACAUCCUCAGCGCC [Raononbeen] (puzzle: Sensor for hsa-mir-208a)”, the “apparent KD of MS2 coat protein” value under setting [2] was 0.105 µM, the “apparent KD of MS2 coat protein” value under setting [3] stood at 0.0292 µM and the “apparent KD of MS2 coat protein” value under setting [4] stood at 0.0964 µM.
“UUGUGUUUGCGAGGAUAUCGUUUGUUGAAGUUACGAGAAGGCGCUCUCUUUACAUGAGGAUCACCCAUGUCUUUGAUGCAUGAU [JR_SSNG1_Sub072] (Eterna round: R96, puzzle: Same State NG 1)”: the “apparent KD of MS2 coat protein” value (input ligand: FMN 200 uM) came to 0.0811 µM, the “apparent KD of MS2 coat protein” value under setting [1] turned out to be 0.0535 µM and the “apparent KD of MS2 coat protein” value (input ligand: none) turned out to be 0.0751 µM.
In the same order, the values of “GCUCGGCUGAUGGCCUACAUGAGGAUCACCCAUGUGACUGGGCAGGAUAUCUAGAUGCAGGAUGUAGAGAAGGGCCUGCCGAGC [SameState NG3 #42] (Eterna round: R96, puzzle: Same State NG 3)” are 0.704 µM, 0.224 µM and 0.458 µM.
In the same order, the values of “AACCUAGGCAGAGGAUAUCUGGACGCGCGCACCAGAGAAGGCUGCGAGCCCUGAAUAUACAUGAGGAUCACCCAUGUCCCGCAC [Eternabot solution 15] (Eterna round: R96, puzzle: Same State NG 1)” are 0.0312 µM, 0.0278 µM and 0.0265 µM.
Take “GGAAGGAGGUCAGGAUAUGAACGGAAGGUACAUGAGGAUCACCCAUGUUACGGAGGAAGGAAACGUUAGAAGGGACAAGGAAGG [AK SSNG2-V2-3] (Eterna round: R96, puzzle: Same State NG 2)”: the “apparent KD of MS2 coat protein” value by setting is: (input ligand: FMN 200 uM) 0.0148 µM; under setting [1], 0.0128 µM; (input ligand: none) 0.0181 µM.
On to “UUUAGUUGCGGGCAGGAUAUGUAUUAAAAUACAUGAGGAUCACCCAUGUGAGGCCGAAAAGGCCUACAGAAGGGCCAAUCGCGAC [Laonerce - 22] (puzzle: Same State 2)”, for which the “apparent KD of MS2 coat protein” value under setting [2] amounted to 0.0197 µM, the “apparent KD of MS2 coat protein” value under setting [3] was found to be 0.0494 µM and the “apparent KD of MS2 coat protein” value under setting [4] stood at 0.063 µM.
On to “GGAGAGAGAGCGCAGGAUAUUCAAGGAGAAACAUGAGGAUCACCCAUGUGAGAGAGAGAGGAGAGGGAGAAGGGUGAGAGAGAGG [Altered State 2-13 - Jieux - Same State 2] (puzzle: Same State 2)”, for which the “apparent KD of MS2 coat protein” value under setting [2] is 0.0231 µM, the “apparent KD of MS2 coat protein” value under setting [3] is 0.0304 µM and the “apparent KD of MS2 coat protein” value under setting [4] was 0.0336 µM.
